From paper PMC5425128, “Functional human GRIN2B promoter polymorphism and variation of mental processing speed in older adults” come the findings set out here.

In this data set the target is T1, Elk-1 (human, UniProt P19419 1-428).
T1 sequence: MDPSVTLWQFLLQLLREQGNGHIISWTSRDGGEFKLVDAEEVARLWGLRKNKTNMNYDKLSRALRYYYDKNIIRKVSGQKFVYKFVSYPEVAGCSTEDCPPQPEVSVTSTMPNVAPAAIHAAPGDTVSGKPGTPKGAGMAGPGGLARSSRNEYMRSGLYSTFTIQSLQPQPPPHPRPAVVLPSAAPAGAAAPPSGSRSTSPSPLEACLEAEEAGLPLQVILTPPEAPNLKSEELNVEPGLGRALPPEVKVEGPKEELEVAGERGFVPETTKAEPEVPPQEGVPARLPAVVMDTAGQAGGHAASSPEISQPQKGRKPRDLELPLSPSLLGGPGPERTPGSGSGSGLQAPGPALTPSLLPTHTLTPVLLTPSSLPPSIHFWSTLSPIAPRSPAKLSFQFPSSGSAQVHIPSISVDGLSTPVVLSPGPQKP
Nature of the data set: EMSA; 1 ug Elk-1, 10 mM MgCl2, no poly(dI-dC); 50 mM HEPES pH 7.5, 10 mM MgCl2, 5% glycerol, 1 mM DTT, 0.3% BSA, 1 mM EDTA; 1 h on ice; 6% gel (HEPES buffer pH 6.3), no poly(dI-dC). Particulars: protein: commercial; blunt. Background: Mobility shift assays separate free from complexed probe on a gel.

B1: GRIN2B A allele (rs3764030 A) (dsDNA)
DNA 1: CATCTCCGGGGAACACGCGAA
DNA 2: TTCGCGTGTTCCCCGGAGATG
As for B1, the binding result is “binds”.
